# Assay results as given in US20150140120, “STABILIZED APTAMERS TO PLATELET DERIVED GROWTH FACTOR AND THEIR USE AS ONCOLOGY THERAPEUTICS” (ARCHEMIX LLC, published 2015).
# Substitutions are numbered along the chain they refer to.
# B1: TK.131.012.A (mixed)
# mixed: CAGGCTACGAUGCAGUUUGAGAAGUCGCGCAUCGTAGAGCATCAGAAATGATCCTG
# modifications: DNA (PDGF part) with 2'-OMe VEGF part (ARC245); 3' inverted dT
# B2: ARX33P1.D2 (ssRNA)
# RNA: GGGAAAAGCGAAUCAUACACAAGACCGGGAACUCGGAUUCUUCGCAUGUGGAUGCGAUCAGUAUGCUCCGCCAGAGACCAACCGAGAA
# modifications: 2'-F pyrimidines, 2'-OH purines
# B3: ARX33P1.E10 (ssRNA)
# RNA: B2 RNA with G29A
# modifications: 2'-F pyrimidines, 2'-OH purines
# B4: ARX33P1.E5 (ssRNA)
# RNA: B2 RNA with G44A, C55U
# modifications: 2'-F pyrimidines, 2'-OH purines
# B5: ARX33P1.E11 (ssRNA)
# RNA: GGGAAAAGCGAAUCAUACACAAGAGAGUGGAGGAGGUAUGUAUGGUUUGUGCGUCUGGUGCGGUGCUCCGCCAGAGACCAACCGAGAA
# modifications: 2'-F pyrimidines, 2'-OH purines
# B6: ARX33P1.D1 (ssRNA)
# RNA: GGGAAAAGCGAAUCAUACACAAGAUCGCCAGGAGCAAAGUCACGGAGGAGUGGGGGUACGAAUGCUCCGCCAGAGACCAACCGAGAA
# modifications: 2'-F pyrimidines, 2'-OH purines
# B7: TK.131.012.B (mixed)
# mixed: CAGGCTACGUGCAGUUUGAGAAGUCGCGCACGTAGAGCATCAGAAATGATCCTG
# modifications: DNA (PDGF part) with 2'-OMe VEGF part (ARC245 lacking first mA-mU pair); 3' inverted dT
# B8: ARC245 (XNA)
# RNA: AUGCAGUUUGAGAAGUCGCGCAU
# modifications: all 2'-OMe; 3' inverted dT
# B9: deoxyARC126 (ssDNA)
# DNA: CAGGCTACGCGTAGAGCATCATGATCCTG
# modifications: 3' inverted dT (SEQ ID NO: 8)
# Tests used:
# VEGF = VEGF (UniProt P15692-4 P15692-4:27-191); assay: filter; dot blot; conditions: chain copies: 2
# Sequence of VEGF (P15692 other isoform, or with tags, fused parts or gaps): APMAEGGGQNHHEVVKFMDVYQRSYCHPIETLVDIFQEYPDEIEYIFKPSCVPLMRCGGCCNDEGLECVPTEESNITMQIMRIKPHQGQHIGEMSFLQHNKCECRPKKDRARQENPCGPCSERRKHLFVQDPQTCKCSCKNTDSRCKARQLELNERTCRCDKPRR
# Source text: (§1) Protein-associated radio-label is captured on the nitrocellulose membrane while the balance of the radio-label is captured on the nylon membrane. The radio-label data is collected on a phosphorimaging plate.
# PDGF-BB [1] = biological target: T1, PDGF-BB (human, UniProt P01127 P01127:82-190); assay: filter; dot blot; conditions: tags: PeproTech (ERK assay: R&D Systems); chain copies: 2 inferred
# T1 sequence (P01127 82-190, one chain of several): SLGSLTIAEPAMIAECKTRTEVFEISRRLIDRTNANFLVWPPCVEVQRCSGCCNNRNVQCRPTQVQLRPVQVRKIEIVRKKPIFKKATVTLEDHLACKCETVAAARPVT
# Source text: as §1
# PDGF-AA [2] = biological target: T2, PDGF-AA (rat, UniProt P28576 P28576:86-204); assay: filter; 1x SHMCK, 0.1 mg/mL tRNA, RT; conditions: chain copies: 2 inferred; label: 5'-32P
# Procedure: (§2) Dot blot binding assays were performed throughout the selection to monitor the protein binding affinity of the pool. Trace ³²P-labeled RNA was combined with PDGF-AA and incubated at room temperature for 30 min in 1× SHMCK plus 0.1 mg/ml tRNA for a final volume of 20 μl. The reaction was added to a dot blot apparatus (Schleicher and Schuell Minifold-1 Dot Blot, Acrylic), assembled (from top to bottom) with nitrocellulose, nylon, and gel blot membranes. RNA that is bound to protein is captured on the nitrocellulose filter, whereas the non-protein bound RNA is captured on the nylon filter.
# PDGF-AA short form [3] = biological target: T3, PDGF-AA short form (human, UniProt P04085-2 P04085-2:87-196); assay: filter; 1x SHMCK (Mg, Ca), 0.1 mg/mL tRNA, RT; 2-3 fold lower without tRNA; conditions: tags: Roche Biomedical (short form); chain copies: 2 inferred; label: 5'-32P
# Procedure: as §2
# PDGF-AA short form [4] = biological target: T3, PDGF-AA short form; assay: filter; 1x SHMCK, 0.1 mg/mL tRNA, RT; conditions: tags: Roche Biomedical (short form); chain copies: 2 inferred; label: 5'-32P
# Procedure: as §2
# PDGF-AA [5] = biological target: T2, PDGF-AA; assay: filter; N.B., no significant binding; conditions: chain copies: 2 inferred; label: 5'-32P
# Procedure: as §2
# PDGF-AA short form [6] = biological target: T3, PDGF-AA short form; assay: filter; N.B., no significant binding; conditions: tags: Roche Biomedical (short form); chain copies: 2 inferred; label: 5'-32P
# Procedure: as §2
# PDGF-BB [7] = biological target: T1, PDGF-BB; assay: filter; recognises VEGF but not PDGF; conditions: tags: PeproTech (ERK assay: R&D Systems); chain copies: 2 inferred
# PDGF-BB [8] = biological target: T1, PDGF-BB; assay: filter; all-DNA ARC126 used in the chimera; dot blot; conditions: tags: PeproTech (ERK assay: R&D Systems); chain copies: 2 inferred
# Source text: as §1
binder,measurement,setting,value
B1,Kd,VEGF,~10 nM
same,Kd,PDGF-BB [1],~10 nM
B2,Kd,PDGF-AA [2],51.7 nM
same,Kd,PDGF-AA short form [3],104 nM
B3,Kd,PDGF-AA [2],47.1 nM
same,Kd,PDGF-AA short form [4],133 nM
B4,Kd,PDGF-AA [2],57.4 nM
same,Kd,PDGF-AA short form [4],117 nM
B5,binding result,PDGF-AA [5],no binding
same,binding result,PDGF-AA short form [6],no binding
B6,binding result,PDGF-AA [5],no binding
same,binding result,PDGF-AA short form [6],no binding
B7,Kd,VEGF,~5 nM
same,Kd,PDGF-BB [1],~10 nM
B8,binding result,PDGF-BB [7],no binding
same,Kd,VEGF,~2 nM
B9,Kd,PDGF-BB [8],~0.1 nM
